Experimental data as given in patent US20140234903.

Assays:
[1] = target: T1, N-terminally His6-tagged PoyA (polytheonamide precursor peptide)
T1 chain: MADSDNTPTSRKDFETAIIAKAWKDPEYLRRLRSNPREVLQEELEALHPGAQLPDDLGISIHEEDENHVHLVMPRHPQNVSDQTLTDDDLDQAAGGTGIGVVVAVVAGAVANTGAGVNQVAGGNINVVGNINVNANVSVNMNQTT

[2] = target: T2, Nhis-PoyA121 (truncated variant of PoyA, residues 1-121, with the first 24 core amino acids)
T2 chain: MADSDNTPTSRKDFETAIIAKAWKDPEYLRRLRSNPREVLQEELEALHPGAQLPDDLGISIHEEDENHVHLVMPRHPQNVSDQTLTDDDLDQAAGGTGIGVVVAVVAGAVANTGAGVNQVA

B1: PoyF (LanM, N-terminal dehydratase domain) (protein)
chain: MMSSSSSREGDALAHAADPTRSIADDITCGLDSLGGPPTVCDAEHPVPFEELWLGFVAHAARALEPLIAPSLHAAVLHDPHGPLRSLLIELAEMGAPAAFELFALYRIREASAASVFGSVRGVESRDTYNAFVKHLATQQLSPLWDAFPALKPLLATRTNLFIAAMAELCQRWEADHVEIMSVFPELRGIGAPQRIRPGLSDAHGGGRTVTRLSFAGGEALFYKPRPVDMEWGCAQFVEWFNGQDHGMPPLRALSVLPRTDYGWMEAARPALCTHVDAVARFYHRAGMLLALADLFCGVDFHSENLIASGEYPVIVDLETLFHPLGPFESQGDALERTELLPRPIYCEDGAPYVICGLGVVPGKAVIELRRRGWININCDNMASCDVTVPWPVGGAVPRNKEGAAPSIATWSGEIVSGFSAMHVFFRTRRNELWSADGPIVQAFGGGRSRFLLRATRIYVELLRRAVQPQALAAHASSSHIFDRLARTGRGWDEIHRVERQALDRMDVPYFTMETTAQFVRGEGRTIHAFFATSGLHMARRRSEFIDDVILNDRAASIRNVLEQSSYSGEATLPDSRVQTDAGAGA
[1]
  mass shift of PoyA (ESI-MS) on co-expression; modified residue by LC/MS/MS: produced PoyA with a mass 18 Da less than expected (observed 17090 Da, calculated 17108 Da

B2: PoyE (SAM-dependent methyltransferase (nucleophilic)) (protein)
chain: MTPRSLPTEPLAAPAAAALDAALRLLKEYLDDIGYHGIYKYLATANYYAASPSVFNASRPQSLEAFDRQIHEGPDDWMLARCLTTCAPCRLEALPPPARRVAEVLADVGLLVWNGNTLEQGGYQLISVFDRYILLDARIHFGGSQLHDVYIGPDSHLLLYYMPVEAIRPADHILDLCTGTGVIGLGLSRFSEHVVSTDIAPPALRLAHMNRALNNAEGRVSIRAENLQETLASDECFDLIACNPPYVAAPPELPTPLYAQGPDRDGLGYLRLLMERAPEKLNPGGQAMFVVDLIGDTHRPYYFDDLERIAKEQELFIEAFIDNRLKADGQLPAYKFLYARLFHGTPPEEIEQRMRNFIFDELHAYYYYMTTLRVRRRKPSGLRVLDRYRITSYDEFFQQS
[2]
  methylation of the C-terminal tryptic peptide 76-121 (LC-ESI/ECD-MS/MS): Near quantitative monomethylation was observed in this sample, with no evidence of multiple methylation. ECD fragmentation located the site of methylation exclusively to Asn112 (in full-length PoyA numbering)
[1]
  number of methylations on PoyA (MS, +14 mass units each): a suite of peptides increasing by 14 mass units (0 to 8 modifications)
